Results taken from the DeepSol protein solubility set.

test: soluble on expression in E. coli; label from the status in PepcDB or PDB records

Sequence	soluble on expression in E. coli
MEVVIIAFLTQKEFEDLGFDEVEDFEKMEKRASHAVNLYCRNRYDYKDLKKEIALVQKAVKRAIAYQIAYLNDSGVMTAEDKQSFAGISLGRTSISYTVGHGQGSQQKTLADRFNLCLDAENELLAVGLGYTGISYDR	not soluble
GSEKRQHSSQDVHVVLKLWKSGFSLDNGELRSYQDPSNAQFLESIRRGEVPAELRRLAHGGQVNLDMEDHRDEDFVKPKGAFKAFTGEGQKLGSTAPQVLST	soluble
MHAPLVSKDLDYISTANHDQPPRHLGSRFSAEGEFLPEPGNTVVCHLVEGSQTESAIVSTRQRFLDMPEASQLAFTPVSSLHMTVFQGVIESRRALPYWPQTLPLDTPIDAVTDYYRDRLSTFPTLPAFNMRVTGLRPVGMVMKGATAEDDSIVALWRDTFADFFGYRHPDHDTYEFHITLSYIVSWFEPECLPRWQAMLDEELEKLRVAAPVIQMRPPAFCEFKDMNHFKELVVFDKR	soluble
MRAVIPYKKAGAKSRLSPVLSLQEREEFVELMLNQVISSLKGAGIEQVDILSPSVYGLEEMTEARVLLDEKDLNEALNRYLKEAEEPVLIVMADLPLLSPEHIKEISSTEKDVCIVPGKGGGTNALFIKNPSKYRVKYYGSSFLTHCSIATDSGQDFEIYDSFMAGTDIDEPEDLVELLIHGKGAAKDYIESKFRLEVKKG	not soluble
MMKRQLHRMRQLAQTGSLGRTPETAEFLGEDLLQVEQRLEPAKRAAHNIHKRLQACLQGQSGADMDKRVKKLPLMALSTTMAESFKELDPDSSMGKALEMSCAIQNQLARILAEFEMTLERDVLQPLSRLSEEELPAILKHKKSLQKLVSDWNTLKSRLSQATKNSGSSQGLGGSPGSHSHTTMANKVETLKEEEEELKRKVEQCRDEYLADLYHFVTKEDSYANYFIRLLEIQADYHRRSLSSLDTALAELRENHGQADHSPSMTATHFPRVYGVSLATHLQELGREIALPIEACVMMLLSEGMKKEGLFRLAAGASVLKRLKQTMASDPHSLEEFCSDPHAVAGALKSYLRELPEPLMTFDLYDDWMRAASLKEPGARLQALQEVCSRLPPENLSNLRYLMKFLARLAEEQEVNKMTPSNIAIVLGPNLLWPPEKEGDQAQLDAASVSSIQVVGVVEALIQSADTLFPGDINFNVSGLFSAVTLQDTVSDRLASEELPSTAVPTPATTPAPAPAPAPAPAPALASAATKERTESEVPPRPASPKVTRSPPETAAPVEDMARRSPRGATGR	soluble
MAHHHHHHMDEGDHSDKESVGEEIVGEDHVEDKDGKPKRSYEKMVEEIKIENSKSFISKISEPLLKKKYFKYFLKILDYAYYAKVTAMQIIKTNEQIEERKKKILKNKFVVIGITQVVKAIRKGVDGIVFLAIDVFPIDIICHMPVFCEEHKIPYTFVTTKNKLARLCKLKRSVTCLFLPKPNIDIDKFEATVNEFSSKKKISNYAKLYEKMLSGVKKNHPFFQS	soluble
MGHHHHHHGSDSEVNQEAKPEVKPEVKPETHINLKVSDGSSEIFFKIKKTTPLRRLMEAFAKRQGKEMDSLRFLYDGIRIQADQAPEDLDMEDNDIIEAHREQIGGDSEVNQEAKPEVKPEVKPETHINLKVSDGSSEIFFKIKKTTPLRRLMEAFAKRQGKEMDSLRFLYDGIRIQADQAPEDLDMEDNDIIEAHREQIGGMFMAKITGSVVSTKKEDSLTGKKLMIVQPIDANGEHVRSEEVACDSVGAGIGEYVLVARGNAARSVFAEPNSAIDSAIIAIVDSFDK	soluble
MSLRQKQKEGGTYSPQDAEIIDTKLKLDQLITVADLELKDERLTRMTVMAATEKFQIMKKELPKFLQDLSSTDADLPWNRAKNRFPNIKPYNNNRVKLIADASVPGSDYINASYISGYLCPNEFIATQGPLPGTVGDFWRMVWETRAKTLVMLTQCFEKGRIRCHQYWPEDNKPVTVFGDIVITKLMEDVQIDWTIRDLKIERHGDCMTVRQCNFTAWPEHGVPENSAPLIHFVKLVRASRAHDTTPMIVHCSAGVGRTGVFIALDHLTQHINDHDFVDIYGLVAELRSERMCMVQNLAQYIFLHQCILDLLSNKGSNQPICFVNYSEGHHHHHH	soluble
MLIRSAKPEDAEFIGSIRVAAWQAAYRGFMPDTYLASLDPGANLDELRAALRAENPPFTLRIAETEGQPIAFSILGKPRYNADQSIVELWALNVHPTHWRKGAGQQLVRQVLLDAKEQKFVSVELWCIQGNLAAQRLYEICGFVPNSQVRTTSSLTGYPLHELAYTYAL	not soluble
MGALIPSSTLFNIFDFNPKKVRIAFIAVGLRGQTHVENMARRDDVEIVAFADPDPYMVGRAQEILKKNGKKPAKVFGNGNDDYKNMLKDKNIDAVFVSSPWEWHHEHGVAAMKAGKIVGMEVSGAITLEECWDYVKVSEQTGVPLMALENVCYRRDVMAILNMVRKGMFGELVHGTGGYQHDLRPVLFNSGINGKNGDGVEFGEKAFSEAKWRTNHYKNRNGELYPTHGVGPLHTMMDINRGNRLLRLSSFASKARGLHKYIVDKGGESHPNAKVEWKQGDIVTTQIQCHNGETIVLTHDTSLQRPYNLGFKVQGTEGLWEDFGWGEAAQGFIYFEKIMNHSHRWDSSEKWIKEYDHPMWKKHEQKAVGAGHGGMDYFLDNTFVECIKRNEAFPLDVYDLATWYSITPLSEKSIAENGAVQEIPDFTNGKWKNAKNTFAINDDY	soluble
MEGVRLGWRGLSREGRGGAWHAAERTRPCTQRVPPSSQKIALQLKATLENVTNLRPVGEDFRWYLKMKCGNCGEISEKWQYIRLMDSVALKGGRGSASMVQKCKLCARENSIDILSSTIKAYNAEDNEKFKTIVEFECRGLEPVDFQPQAGFAADGVESGTVFSDINLQEKDWTDYDEKAQESVGIFEVTHQFVKC	soluble
MGSDKIHHHHHHMDAAKDDLEHAKHDLEHGFYNWACFSSQQAAEKAVKAVFQRMGAQAWGYSVPDFLGELSSRFEIPEELMDHALELDKACIPTRYPDALPSGSPRNRYSRIEAERLVNYAEKIIRFCEDLLSRI	soluble
MRWKKINITINNVEMILVAAIIIDVPPVVDLCVKTMIHNINSTNCIRMFNFSKRYGIKKLYNASMSEIINNITAVTSDPEFGKLSKDELTTILSHENVNVNHEDVTL	not soluble
MRLIVVSGQSGAGKSVALRVLEDLGYYCVDNLPVSLLTAFIQSVQGSQQNVAVSIDIRNLPKEPSLVQDVLDQLKQNNDVSMLFLDASKETLLKRYSETRRIHPLSLSQSKPSLAQAIELEKQLLGPLKEQADLLLDSSNQSLHELSETVRMRIEGRERKDLVMVFQSFGFKYGLPTDADYVFDVRFLPNPHWEPDLRPLTGLDAPIKSFLEGHSEVMELKQQIQKFFEYWLPMLEKNNRSYLTIAIGCTGGKHRSVYLTQQLGEYFAQLGHQVQLRHTSLEKQ	soluble
MSLENTEKLKNSKEVIAYIAECFPNCFTLEGEAKPLKIGIFQDLADRLNDDPKVSKTQLRAALRQYTSSWRYLHGVKPGATRVDLDGNPCGELEEQHVEHAQAALAESKARVEARRKEQVKKVREEAKANKPKAKKPQQARRPQNAPKVEKKPVETRALAASELNVGNQVNVNMGKGNMAATIVEVNKEDVRVQLANGLQMVVKAEHLRAEGGSHHHHHH	soluble
MGSDKIHHHHHHMWMNGFARWMDKLKVLSSEAGSKACWGYDACPAGDGIIASIDGYSMDSSRLPWMSLGDWGWKSVVAAASDVAASGGAPFHVMYSLGLDSVERAVDVARGVGEAAVWMGATVGKSDFNTSKSPWIDVAVLGKAEKPLGRFGAKPGMTLVQVGASGYGLLSHLTLQGRLSRDDLPGPVVEYTRRPKPPLRIGPELSSCEAAASIDNSDGLGASLHLLGVESGVSVVIDDILVDRHVEKVLDELGLEKWAVLQSWEDYNIVAVGGDGSIDCILRWCRRLNIECATVGYTSSDGAGRVLIEGGRREFRVSGWTWL	not soluble
MNPIPADVAAVVLAGGVGRRFGRPKALAMMDGISLVERAVEALSSGPADVYVSVSPALERPVARLVGSRRVIVDLVEQAPCEGPLRAFLTAASTLVSYSNLVFMPVDAPWASWRDLEPIYNASKAIGSGASYFSGEGIVHPLFLAARRKSLLTAAWTACWGRAEKRASAILRSLDPLILLGSSETRSPLALATVNTPQDLWRPSRVPAPAEGYILLEGHSILYKISSTMNSYYSALALEAEYKLYRRLGLLRLASHVLKDAAALNVSTSLIQQESMAGGLGLEHHHHHH	not soluble
